{"source": "patent US20210388079A1", "binders": {"B1": {"name": "TCR R49P2B7, alpha and beta chains expressed in human primary CD8+ T-cells by RNA electroporation (TCR, V domains shown)", "V domain 1": "AQSVTQLGSHVSVSEGALVLLRCNYSSSVPPYLFWYVQYPNQGLQLLLKYTTGATLVKGINGFEAEFKKSETSFHLTKPSAHMSDAAEYFCAVRIFGNEKLTFGTGTRLTIIP", "V domain 2": "DVKVTQSSRYLVKRTGEKVFLECVQDMDHENMFWYRQDPGLGLRLIYFSYDVKMKEKGDIPEGYSVSREKKERFSLILESASTNQTSMYLCASSLMGELTGELFFGEGSRLTVLE"}}, "key": {"[1]": {"target": "NYESO1-001 (tetramer, row label of Figure 31) (human)", "experiment": "flow cytometry, HLA-A*02/NYESO1-001 tetramer staining of TCR-RNA-electroporated CD8+ T-cells; mock cells 1.09%"}, "[2]": {"target": "HLA-A*02/SPINK2-001 tetramer (human)", "experiment": "flow cytometry, HLA-A*02/SPINK2-001 tetramer staining of TCR-RNA-electroporated CD8+ T-cells; mock cells 0.97%"}}, "data": [{"binder": "B1", "values": [{"measurement": "% of CD8+ T-cells in the tetramer-positive gate", "setting": "[1]", "result": 0.96, "unit": "%"}, {"measurement": "% of CD8+ T-cells in the tetramer-positive gate", "setting": "[2]", "result": 30, "unit": "%"}]}]}
